# Results published in PMC7566476, “MYB61 is regulated by GRF4 and promotes nitrogen utilization and biomass production in rice”.
# T1: GST-GRF4 (UniProt Q6ZIK5)
# T1 sequence: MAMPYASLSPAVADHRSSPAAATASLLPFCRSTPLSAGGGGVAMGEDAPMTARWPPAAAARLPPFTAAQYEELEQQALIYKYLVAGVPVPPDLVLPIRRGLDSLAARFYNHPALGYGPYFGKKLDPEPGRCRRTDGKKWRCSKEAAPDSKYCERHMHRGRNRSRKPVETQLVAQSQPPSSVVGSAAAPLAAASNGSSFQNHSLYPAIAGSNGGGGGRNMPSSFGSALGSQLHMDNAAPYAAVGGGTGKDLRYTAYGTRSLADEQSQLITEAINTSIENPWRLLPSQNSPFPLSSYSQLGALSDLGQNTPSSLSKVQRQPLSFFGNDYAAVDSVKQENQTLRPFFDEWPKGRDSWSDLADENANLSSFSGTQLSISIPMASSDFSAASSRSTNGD
# T2: GST-GRF4 (UniProt Q6ZIK5 1-394)
# T2 sequence: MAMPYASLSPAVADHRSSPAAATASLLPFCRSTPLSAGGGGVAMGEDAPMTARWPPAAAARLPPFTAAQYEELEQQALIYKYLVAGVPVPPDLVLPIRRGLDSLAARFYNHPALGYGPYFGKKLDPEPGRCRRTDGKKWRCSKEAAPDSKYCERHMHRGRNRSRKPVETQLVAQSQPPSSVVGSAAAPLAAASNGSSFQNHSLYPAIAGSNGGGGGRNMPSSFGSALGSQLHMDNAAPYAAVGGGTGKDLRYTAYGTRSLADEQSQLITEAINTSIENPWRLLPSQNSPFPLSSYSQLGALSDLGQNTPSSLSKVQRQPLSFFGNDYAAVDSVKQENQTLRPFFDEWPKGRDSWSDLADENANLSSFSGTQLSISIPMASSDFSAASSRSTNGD
# Columns and labels:
# GST-GRF4 [1] = target: T1, GST-GRF4; assay: EMSA; conditions: EMSA binding buffer (Beyotime; composition, salt and pH not given), 4 °C; unlabeled competitor 50-, 100- and 500-fold
# GST-GRF4 [2] = target: T2, GST-GRF4; assay: EMSA; EMSA binding buffer (Beyotime; composition, salt and pH not given), 4 °C; unlabeled competitor 50-, 100- and 500-fold; conditions: protein: recombinant; tags: N-terminal GST (pGEX-6P-1); label: biotin; blunt
Molecule,binding (GST-GRF4 [1]),binding result (GST-GRF4 [2])
AATCTGTGCTCCAATCCAAGAAGATCATCTCTGGCACCTCTCAAGATGCTAAGCAATCAGCTGTGAGAACCAGGCCTATGCTGATGATTGCTTTTGCAGAGTTACAAACAGCATGATTTCCTCACTGGCCGTATTCTCGCTCAGAAGCAAATCCCAAT (double strand) [MYB61 promoter P1 fragment],no binding,–
MYB61 promoter motif 2 probe (within P8) (dsDNA) DNA 1: CAAAAAGGCTGCGGTAATTAAGTCACAGTA DNA 2: TACTGTGACTTAATTACCGCAGCCTTTTTG,–,binds
